Assay results published in PMC9831982 (Nature Communications, 2023).
One block for each binder: values may come before it.

Molecular target: T1, Slh1 (from SLH1-FTP, released by TEV protease) as imaged by HS-AFM (S. cerevisiae, UniProt P53327 1-1967)
T1 construct: Slh1 (RQT2), S. cerevisiae; The methods describe this purification for the wild-type and the double-mutant trimer; not shown: protein A (behind a TEV site), C-terminal, cleaved
Assay: HS-AFM; purified complex (5 nM) on mica in RQT-AFM buffer (50 mM Tris pH 7.5, 100 mM NaCl, 10 mM MgCl2, 100 mM L-arginine, 10 µM ZnCl2), room temperature
Details: both partners purified

T1 sequence (P53327 whole entry): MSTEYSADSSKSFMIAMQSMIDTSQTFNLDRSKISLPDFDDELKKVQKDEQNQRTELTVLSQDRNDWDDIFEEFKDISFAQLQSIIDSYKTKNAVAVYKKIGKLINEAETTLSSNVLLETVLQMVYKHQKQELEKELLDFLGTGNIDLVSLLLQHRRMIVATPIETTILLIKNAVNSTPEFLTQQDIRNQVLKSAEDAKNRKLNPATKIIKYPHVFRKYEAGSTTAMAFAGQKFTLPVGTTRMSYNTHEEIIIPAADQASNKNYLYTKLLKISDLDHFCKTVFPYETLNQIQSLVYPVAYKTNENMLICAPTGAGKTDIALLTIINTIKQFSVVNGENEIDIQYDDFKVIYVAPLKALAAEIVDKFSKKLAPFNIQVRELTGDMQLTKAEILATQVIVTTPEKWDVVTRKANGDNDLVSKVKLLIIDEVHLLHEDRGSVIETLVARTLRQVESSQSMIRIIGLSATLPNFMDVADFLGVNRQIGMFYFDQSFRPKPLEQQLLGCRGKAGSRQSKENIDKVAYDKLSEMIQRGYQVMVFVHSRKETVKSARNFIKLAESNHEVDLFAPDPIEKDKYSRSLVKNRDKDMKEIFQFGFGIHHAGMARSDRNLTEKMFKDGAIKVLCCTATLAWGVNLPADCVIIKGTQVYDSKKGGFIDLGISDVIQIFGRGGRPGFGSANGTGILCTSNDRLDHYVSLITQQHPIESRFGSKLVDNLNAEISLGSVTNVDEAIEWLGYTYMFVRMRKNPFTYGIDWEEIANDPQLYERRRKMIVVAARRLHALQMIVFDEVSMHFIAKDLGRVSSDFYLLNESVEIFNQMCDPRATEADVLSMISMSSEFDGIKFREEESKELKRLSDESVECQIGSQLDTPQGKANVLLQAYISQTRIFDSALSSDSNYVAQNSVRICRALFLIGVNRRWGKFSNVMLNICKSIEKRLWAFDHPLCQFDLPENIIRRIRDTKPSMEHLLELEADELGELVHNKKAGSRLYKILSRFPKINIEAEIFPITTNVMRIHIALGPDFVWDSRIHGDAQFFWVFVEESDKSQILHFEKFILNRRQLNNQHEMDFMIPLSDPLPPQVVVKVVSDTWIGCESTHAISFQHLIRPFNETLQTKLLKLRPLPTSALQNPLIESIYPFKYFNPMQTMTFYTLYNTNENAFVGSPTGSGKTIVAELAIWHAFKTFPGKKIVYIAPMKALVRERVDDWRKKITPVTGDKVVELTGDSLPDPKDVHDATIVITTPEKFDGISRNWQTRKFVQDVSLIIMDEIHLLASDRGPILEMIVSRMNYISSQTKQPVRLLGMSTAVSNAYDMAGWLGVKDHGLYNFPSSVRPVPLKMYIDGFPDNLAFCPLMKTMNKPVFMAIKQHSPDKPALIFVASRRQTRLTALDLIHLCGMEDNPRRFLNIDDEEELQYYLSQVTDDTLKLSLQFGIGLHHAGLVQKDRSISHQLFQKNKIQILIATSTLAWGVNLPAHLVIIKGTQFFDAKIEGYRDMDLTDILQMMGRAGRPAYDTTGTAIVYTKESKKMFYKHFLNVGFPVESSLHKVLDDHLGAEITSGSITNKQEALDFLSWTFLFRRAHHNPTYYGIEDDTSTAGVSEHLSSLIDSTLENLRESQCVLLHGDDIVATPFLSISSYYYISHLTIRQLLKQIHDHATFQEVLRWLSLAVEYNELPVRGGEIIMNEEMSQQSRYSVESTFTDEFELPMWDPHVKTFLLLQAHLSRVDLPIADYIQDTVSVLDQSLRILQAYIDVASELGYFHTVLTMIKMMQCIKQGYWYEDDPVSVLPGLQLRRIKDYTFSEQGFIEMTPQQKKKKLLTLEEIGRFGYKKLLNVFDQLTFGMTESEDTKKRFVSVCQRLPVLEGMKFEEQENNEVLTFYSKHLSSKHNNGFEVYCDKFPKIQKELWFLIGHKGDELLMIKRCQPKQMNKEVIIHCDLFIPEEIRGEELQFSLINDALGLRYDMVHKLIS

binding result: binds
B1: Rqt4 as imaged by HS-AFM in the Slh1/Rqt4 complex (natural protein, S. cerevisiae, UniProt P36119 1-530, looked up)
chain: MTRKQAIDYAIKQVPQILPLEESDVKALCEQVLSTSSDDPEQIASKFLEFLGHEDLSFEFVMKFNELLNQNDKKEEKKTKNVHLEHTAPTSWKNESKQPTNNYINKKGDEKPKKLKDEKKSSTTRPTVQPSNQSTQSNPIKEKKEHRSKGKLQSLQEIDEAIKMLELRDSGSSKNCNCQGTRHPVFDIAPNCLHCGKVVCVIEGLNKGKCGHCHEQLISDNERTQMVEILNQEKNELNGSSSSLSNASNGANVPKKKTKTYKITSGMGKNLFAEQDKLFDFIERKRERERKRNEVLKLQEEKEESEAKERQASEHDHKAEENPELLAAQERLDRLLYFQDTSAERTKIIDNASDFDMNQEVGLWGSARERALALKKQQRNLRKWEKVEKERNGRREKYVVSMNIGSNGKVTMTEVPKDTENVIAGSDDDISDISDEEDISDLKHIHALKSEINTTKSLENLHLQSKAWDYERDKKQFDRPTYVKKNSDTAQQNRKTEEKAHDMQAYDLKSRVQVDQNADASVEQNILAVL
notes: Rqt4, S. cerevisiae

binding result: binds
B2: Cue3 as imaged by HS-AFM in the Slh1/Cue3 complex (natural protein, S. cerevisiae, UniProt P53137 1-624, looked up)
chain: MLSRYNRVIEINGGNADISLPIVKFPPFKLRAQLIEKDPVVWLHLIETYVTYFEYLMQGANVELLDESTLDHLRLFLRTYLHEIADEEGKLLSLGINHDVSEQLYLLKGWIFSLIKKCGLLHLQIFGDSLWNLIKVYVRRNPDSIRGLIDGSLKPRINTQRVQLDKSYQVQQHLKQLIESGKFKRIDLRCVEDLLSAKSMQPNKFAENFFTANWIEILEALWAKGQGRGHKEARELIIISLFSVSADRLLKITKELGISNFETLALYPLLGTMLINEGVHKRLPDLKSKLLFLNLGGLSMDEGDHMSYPTSSGTEVNEEQLSALMELFPQFSKYQLSQTLLAYDNNIELVTNKIFEDPTIIEAFSREPAEEEVEPVSDGDNASFTEELSILDRGDSSKNKELDKKIISEGVPDELRNKTLTRALKLLYEADEDERDDTYDEADVNRSDPSKRIGLQEDEESYDTKDDSNEVRQDHNYHIVEAYLWNLLKEDPKLFERSKRGTKVRKTMKEMTSWSDEKIEGWCRMLERSPTRARLLEKKFMFKGNSKTGKTSYVHNRDSQNDGNVVKEQAKQKKSENIKKHEPQSTEQKKRQHAKNEKRKGARANHNRKKGHDKKLARAGNNAI
notes: Cue3 (RQT3), S. cerevisiae
